{
  "source": "paper PMC12756740",
  "about": "“A GH42 β‑Galactosidase from the Human Isolate Bifidobacterium breve DSM 20213: Biochemical and Transgalactosylation Properties Reveal the Potential for Galacto-oligosaccharides Synthesis” (ACS Omega, 2025)",
  "proteins": {"B1": {"name": "Bbreβgal-III (Bifidobacterium breve DSM 20213 = JCM 1192) (protein)", "chain": "MEHREFKWPQPLAGGKPRIWYGGDYNPDQWPEEVWDEDVALMQKAGVNLVSVAIFSWAKLEPEEGVYDFDWLDRVIDKLGKAGIAVDLASGTASPPMWMTQAHPEILWVDYRGDVCQPGARQHWRATSPVFLDYALNLCRKMAEHYKDNPYVVSWHVSNEYGCHNRFDYSEDAERAFQKWCEKKYGTIDAVNDAWGTAFWAQRMNNFSEIIPPRFIGDGNFMNPGKLLDWKRFSSDALLDFYKAERDALLEIAPKPQTTNFMVSAGGAGIDYDKWGYDVDFVSNDHYFTPGEAHFDELAYSASLCDGIARKNPWFLMEHSSSAVNWRPINYRVEPGELVRDSLAHLAMGSDAICYFQWRQSKAGAEKWHSSMVPHAGPDSQIFRDVCELGADLNKLADEGLLSTKLVKSKVAVVFDYESQWATEHTATPTQEVRHWTEPLAWFRALADNGLTADVVPVRGPWDEYEAVVLPSLTILSEETTRRVREYVANGGKLFVTYYTGLVDDKDHVWLGGYPGSIRDVVGVRVEEFAPMGNDFPGAIDHLDLDNGTVAHDFADVITSVADTAHVVAAFKADKWTGFDGAPAITVNDFGDGKAAYIGARLGREGLAKSLPALLEELGIETSAEDDRGEVLRVERADETGENHFVFLFNRTHDVAIVDVDGEPLVASLAQVNESEHTAAIQPNGVLVVKL", "notes": "pET21a(+) NdeI/NotI, His-tagged, E. coli BL21 Star (DE3), IMAC purified"}},
  "substrate": "O=[N+]([O-])c1ccccc1O[C@@H]1O[C@H](CO)[C@H](O)[C@H](O)[C@H]1O",
  "assay": "purified protein",
  "type": "biochemical, Bifidobacterium breve",
  "conditions": "50 mM sodium phosphate pH 6.5, 30 °C, 0.01-22 mM oNPG",
  "data": [
    {"protein": "B1", "values": [
      {"measurement": "Km", "result": "1.57 ± 0.16", "unit": "mM"},
      {"measurement": "Vmax", "result": 3650, "unit": "µmol/min/mg"},
      {"measurement": "kcat", "result": "4690 ± 260", "unit": "s⁻¹"},
      {"measurement": "kcat/Km", "result": "2.99e+06 ± 140000", "unit": "M⁻¹ s⁻¹"}
    ]}
  ]
}
